One assay has as its target T1, mouse MIP-1α/CCL3 (mouse, UniProt P10855 24-92).
T1 construct: also called muMIP-1α
T1 sequence: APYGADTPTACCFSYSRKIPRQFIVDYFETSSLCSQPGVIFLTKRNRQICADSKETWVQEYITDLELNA
Description: Binding (MSD).

Another assay concerns the target T2, mouse MIP-1β/CCL4 (mouse, UniProt P14097 24-92).
T2 construct: also called muMIP-1β
T2 sequence: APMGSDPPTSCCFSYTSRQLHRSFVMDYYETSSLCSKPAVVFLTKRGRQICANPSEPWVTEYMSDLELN
The assay is described as follows: Binding (MSD).

The target in another assay is T3, human MIP-1α/CCL3 (human, UniProt P10147 24-92).
T3 construct: also called Biotin-MIP-1α
T3 sequence: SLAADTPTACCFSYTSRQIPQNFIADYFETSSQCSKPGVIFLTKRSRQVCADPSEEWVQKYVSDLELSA
The assay is described as follows: ELISA, hybridoma fusion-well supernatant on coated MIP-1α; background approx. 0.150. In general terms: In an ELISA, binding on a coated surface is turned into a signal by an enzyme label.

The target in another assay is T4, human RANTES/CCL5 (human, UniProt P13501 24-91).
T4 construct: also called Biotin-RANTES
T4 sequence: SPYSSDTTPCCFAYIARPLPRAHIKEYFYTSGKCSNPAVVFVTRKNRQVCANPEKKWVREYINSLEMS
Description: ELISA, hybridoma fusion-well supernatant on biotinylated chemokine on streptavidin plate; background approx. 0.150.

In another assay the target is T5, human MIP-1β/CCL4 (human, UniProt Q8NHW4 24-92).
T5 construct: also called Biotin-MIP-1β
T5 chain: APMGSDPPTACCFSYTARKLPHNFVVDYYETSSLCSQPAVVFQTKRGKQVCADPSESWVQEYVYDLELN
Described as above.

Assay [1] deals with T6, human MCP-1/CCL2 (human, UniProt P13500 24-99).
T6 construct: also called Biotin-MCP1
The description is as above.

The target in another assay is T7, mouse RANTES/CCL5 (mouse, UniProt P30882 24-91).
T7 construct: also called muRANTES
Description: MSD electrochemiluminescence, chemokine coated at 1 µg/mL.

In the next assay the target is T8, MCP-3.
T8 construct: also called MCP-3/CCL7; CCL7
The assay is described as follows: MSD electrochemiluminescence assay; chemokine coated at 1 µg/mL, 7D1G at 3 µg/mL; background = BSA.

For the next assay, the target named is T9, Fractalkine.
T9 construct: also called Fractalkine/CX3CL1; CX3CL1
T9 chemokine: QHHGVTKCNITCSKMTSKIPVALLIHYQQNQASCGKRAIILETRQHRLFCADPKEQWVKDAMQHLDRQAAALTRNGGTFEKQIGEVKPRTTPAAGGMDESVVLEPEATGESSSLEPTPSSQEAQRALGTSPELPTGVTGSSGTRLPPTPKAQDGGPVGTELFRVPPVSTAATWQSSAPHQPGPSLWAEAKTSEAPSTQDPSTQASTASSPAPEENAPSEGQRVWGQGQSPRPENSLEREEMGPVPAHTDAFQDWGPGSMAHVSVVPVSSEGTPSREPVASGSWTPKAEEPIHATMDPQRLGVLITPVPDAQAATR
The description is as above.

A further assay addresses T10, MCP-4.
T10 construct: also called MCP-4/CCL13; CCL13
Described as above.

In another assay the target is T11, HCC-4.
T11 construct: also called HCC-4/CCL16; CCL16
T11 chemokine: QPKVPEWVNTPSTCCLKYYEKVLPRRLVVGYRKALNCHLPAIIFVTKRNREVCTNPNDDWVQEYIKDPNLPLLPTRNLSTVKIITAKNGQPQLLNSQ
The assay is described as above.

A further assay addresses T12, MCP-2.
T12 construct: also called MCP-2/CCL8; CCL8
T12 chemokine: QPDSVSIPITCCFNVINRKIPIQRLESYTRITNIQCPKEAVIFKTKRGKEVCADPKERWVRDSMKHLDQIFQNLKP
The description is as above.

In another assay the target is T13, IL-8.
T13 construct: also called IL-8/CXCL8; CXCL8
The assay is described as above.

A further assay concerns the target T14, MDC.
T14 construct: also called MDC/CCL22; CCL22
T14 chemokine: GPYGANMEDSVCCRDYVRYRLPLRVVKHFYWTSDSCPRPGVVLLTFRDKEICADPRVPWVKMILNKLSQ
The assay is described as above.

Assay [2] deals with T6, human MCP-1/CCL2. Described as above.
The next assay addresses T15, I-309.
T15 construct: also called I-309/CCL1; CCL1
T15 chemokine: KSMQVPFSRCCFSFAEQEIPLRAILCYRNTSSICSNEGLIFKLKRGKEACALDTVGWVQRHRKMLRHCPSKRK
The description is as above.

In a further assay the target is T16, Eotaxin.
T16 construct: also called Eotaxin/CCL11; CCL11
The description is as above.

The next assay has as its target T17, human HCC-1/CCL14/CCL14a (human, UniProt Q16627 28-93).
T17 sequence: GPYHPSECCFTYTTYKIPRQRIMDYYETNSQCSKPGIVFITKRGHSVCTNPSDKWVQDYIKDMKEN
Described as above.

The target of another assay is T18, SDF.
T18 construct: also called SDF-1/CXCL12; CXCL12
The description is as above.

T6 sequence (P13500 24-99 limits assumed): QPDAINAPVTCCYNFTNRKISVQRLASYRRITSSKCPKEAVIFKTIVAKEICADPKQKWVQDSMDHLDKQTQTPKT
T16 sequence (chemokine, as listed by the source): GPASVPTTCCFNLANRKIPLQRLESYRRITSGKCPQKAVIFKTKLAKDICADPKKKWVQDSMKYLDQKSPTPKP
T10 sequence (chemokine, as listed by the source): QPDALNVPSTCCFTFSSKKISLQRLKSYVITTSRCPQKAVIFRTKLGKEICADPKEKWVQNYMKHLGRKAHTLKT
T8 sequence (chemokine, as listed by the source): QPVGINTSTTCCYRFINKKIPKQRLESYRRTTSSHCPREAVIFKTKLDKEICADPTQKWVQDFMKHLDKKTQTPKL
T13 sequence (chemokine, as listed by the source): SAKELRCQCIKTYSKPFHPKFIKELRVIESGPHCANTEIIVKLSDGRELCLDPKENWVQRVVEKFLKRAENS
T7 sequence (P30882 24-91 limits assumed): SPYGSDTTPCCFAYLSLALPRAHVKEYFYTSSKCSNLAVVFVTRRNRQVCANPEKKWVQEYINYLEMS
T18 sequence (chemokine, as listed by the source): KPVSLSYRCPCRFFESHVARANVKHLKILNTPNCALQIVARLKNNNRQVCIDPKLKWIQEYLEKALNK

B1: monoclonal antibody 7D1G (antibody, V domains shown)
VH: QVQLQQPGAELVKPGASVKMSCKASGYTFTSYNIHWVKQTPGQGLEWIGAVSPRNGDTSYNQRFKGKATLTADISSSTAYMQLSSLTSEDSAVYYCARGYGYDYWGQGTTLTVSS
VL: DVVLTQSPATLSVTPGDRVSLSCRASQSVSKYLHWYQQKSHESPRLLIKYVSQSISGIPSRFSGSGSGTDFTLSINSVETEDLGMYFCQQSNSWPHTFGAGTKLELK
notes: also called MAb 7D1G
Consider B1, for which the binding result in the assay with mouse MIP-1α/CCL3 is reported as “binds”; in the assay with mouse MIP-1β/CCL4, “binds”; in the assay with mouse RANTES/CCL5, “no binding (tested: 3 µg/mL)”; with MCP-3, “no binding (tested: 3 µg/mL)”; with Fractalkine it was “no binding (tested: 3 µg/mL)”; with MCP-4 it was “no binding (tested: 3 µg/mL)”. Also, the binding result with HCC-4, with MCP-2, in the assay with IL-8, with MDC, in the assay with human MCP-1/CCL2 [2] and with I-309 was “no binding (tested: 3 µg/mL)” each time. The binding result is “no binding (tested: 3 µg/mL)” in the assay with Eotaxin, “binds” in the assay with human HCC-1/CCL14/CCL14a and “no binding (tested: 3 µg/mL)” in the assay with SDF. Further, the ELISA signal with human MIP-1α/CCL3 stood at 1.7; with human RANTES/CCL5, 0.145; with human MIP-1β/CCL4, 2.57; with human MCP-1/CCL2 [1], 0.22.

Values taken from patent publication US20150166647A1 (VLST, published 2015).
